Results: patent US20130259876A1 (published 2013)

Biological target: T1, nucleoprotein of influenza A virus (NP383-391) peptide on HLA-B*27:05 (human)
T1 peptide: SRYWAIRTR
Experiment: activation reporter or marker

B1: GRb (TCR, V domains shown)
Valpha: AQTVTQSQPEMSVQEAETVTLSCTYDTSENNYYLFWYKQPPSRQMILVIRQEAYKQQNATENRFSVNFQKAAKSFSLKISDSQLGDAAMYFCAYFSGGSNYKLTFGKGTLLTVNP
Vbeta: DTEVTQTPKHLVMGMTNKKSLKCEQHMGHRAMYWYKQKAKKPPELMFVYSYEKLSINESVPSRFSPECPNSSLLNLHLHALQPEDSALYLCASSQEVLDTQYFGPGTRLTVL
B1: recognises.
